The data set can be described thus: yeast display, Sf9 membrane polyspecificity reagent, FACS + sequencing; frameworks hold sequencing errors. In short, it runs like this:
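Nanobodies from a synthetic yeast display library (Saccharomyces cerevisiae BJ5465), induced 36–48 hours with galactose, were stained 1 hour at 4 °C with 10% biotinylated, detergent-solubilized Sf9 membrane reagent, enriched on streptavidin microbeads, then FACS-sorted. Anti-HA (expression) and streptavidin (reagent binding) fluorescence set low and high (top ~1%) gates. Polyreactivity labels come from the gate of origin. Genes were colony-PCR amplified, MiSeq 2 × 250 sequenced and filtered by CDR length.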
On to “QVQLVESGGGLVQAGGSLRLSCAASGSTSGPYAMGWYRQAPGKETELVATISWIGDRTYYADSVKGRFTISRDNAKNTIYLQMNSLKPEDTAVYYCNADYRGYANLEGDYWGQGTQVTVSS”, for which the “polyreactivity (PSR sort gate)” value is given as “low polyreactivity”.

On to “QVQLVESGGGLVQAGGSLRLSCAASGSTSGSYGMGWYRQAPGKERELVAAIRWSGGRTYYADSVKGRFTISRDNAKNTVYLQMNSLKPEDTAVYYCAKYRYTVAGYNYWGQGTQVTVSS”, for which the “polyreactivity (PSR sort gate)” value is given as “high polyreactivity”.

“QVQLVESGGGLVQAGGSLRLSCAASGSTSIYYTMGWYRQAPGKERELVAYADSVKGRFTISRDNAKNTVYLQMNRLKPEDTAGYYCAAPRTYYSELTSPYDYWGQGAQVTVSS”: the “polyreactivity (PSR sort gate)” value is “low polyreactivity”.

Take “QVQLVESGGGLVQAGGSLRLSCAASGSTSKSYTMGWYRQAPGKERELVAAISYSGVSTYYADSVKGRFTISRDNAKNTVYLQMNSLKPEDTAVYYCAKRTRKYTVGYYYWGQGTQVTVSS”: the “polyreactivity (PSR sort gate)” value is on record as “high polyreactivity”.

As to “QVQLVESGGGLVQAGGSLRLSCAASGSTSKWYAMGWYRPAPGKERELVAAITKTGGRTYYADSVKGRFTISRDNAKNTVYLQMNSLKPEDTAVYYCAVEYLRGFIVIYDYWGQGTQVTVSS”, the “polyreactivity (PSR sort gate)” value is recorded as “high polyreactivity”.

Take “QVQLVESGGGLVQAGGSLRLSCAASGSTSLIYAMGWYRQAPGKERELVARISGSGGSTFYADSVKGRFTISRDNAKNTVFLQMNSLKPEDTAVYYCAAYIRGRRYNWATVGYNYWGQGTQVTVSS”: the “polyreactivity (PSR sort gate)” value is given as “high polyreactivity”.

Regarding “QVQLVESGGGLVQAGGSLRLSCAASGSTSPIYAMGWYRQAPGKERELVAAINGVGSTNYADSVKGRFTISRDNAKNTVYLQMNSLKPEDTAVYYCNTRYSPGYQGTEVDYWGQGTQVTVSS”, the “polyreactivity (PSR sort gate)” value was “low polyreactivity”.

As to “QVQLVESGGGLVQAGGSLRLSCAASGSTSQPYAMGWYRQAPGQERELVASITNGGITYYADSVKGRFTISRDNAKNTVYLQMNSLKPEDTAVYYCNTVSYTEFDYWGQGTQVTVSS”, the “polyreactivity (PSR sort gate)” value is reported as “low polyreactivity”.

Regarding “QVQLVESGGGLVQAGGSLRLSCAASGSTSRGNAMAWYRKSPGKERELVATISQSGGNTFYADSVKGRFTISLDNAKNTVYLQMNSLNPEDTAVYYCAAGRYWFAWYDYWGQGTQVTVSS”, the “polyreactivity (PSR sort gate)” value was “high polyreactivity”.

For the sequence “QVQLVESGGGLVQAGGSLRLSCAASGSTSRLYAMGWYSQAPGKERELVAAIRYSSGTTYYADSVTVRFTISRDNAKNTVYLQMNSLKPEDTAVYYCAAVTIRRYGPAEYNYWGQGTQVTVSS”, the “polyreactivity (PSR sort gate)” value is listed as “high polyreactivity”.

Consider “QVQLVESGGGLVQAGGSLRLSCAASGSTSRSYTMGWYRQAPGKEREFVASIRWSGGRTYNADSVKGRFTISRDNAKNTVYLQMNSLKPEDTAVYYCNADYYRLRFRLGWYDYWGQGTQVTVSS”, for which the “polyreactivity (PSR sort gate)” value is “high polyreactivity”.

“QVQLVESGGGLVQAGGSLRLSCAASGSTSRVYAMGWYRQAPGKERELVAAINKSGTRTYYADSVKGRFTISRDNAKNTVYLQMNSLKPEDTAVYYCAADQGTYGYGGFYYWGQGTQVTVSS”: the “polyreactivity (PSR sort gate)” value is “high polyreactivity”.

In the case of “QVQLVESGGGLVQAGGSLRLSCAASGSTSRYYDMGWYRQAPGKERELVAAITWSGGTTYYADSVKGRFTISRDNAKNTVYLQMDSLKPEDTAVYYCAVDSQTANDYDYWGQGTQVTVSS”, the “polyreactivity (PSR sort gate)” value is given as “low polyreactivity”.

Turning to “QVQLVESGGGLVQAGGSLRLSCAASGSTSSTYAKGWYRQAPGKERELVATINWDGASTYYADSVKGRFTISRDNATNTVYLQMNSLKPEDTAVYYCAAQSGAVHFLEDDYWGQGTQVTVSS”, the “polyreactivity (PSR sort gate)” value is on record as “low polyreactivity”.

“QVQLVESGGGLVQAGGSLRLSCAASGSTSTRYAMGWYRPAPGKERELVAAISKSGGRTYYADSVKGRFTMSRDNAKNTVYLQMNSLKPEDTAVYYCNTVPGRYRTFDYWGQGTQVTVSS”: the “polyreactivity (PSR sort gate)” value was “high polyreactivity”.

Regarding “QVQLVESGGGLVQAGGSLRLSCAASGSTSTSNAMGWYRQAPGKERELVAVISSGGSTYYADSVKGRFTISRDNAKNTVYLQMNSLKPEDTAVYYCSADARIHWFVVRYEYWGQGTQVTVSS”, the “polyreactivity (PSR sort gate)” value is “low polyreactivity”.

Values taken from the nanobody polyreactivity screen of Harvey et al. (2022).
